Assay results: paper PMC9438503, “The Haemophilus influenzae HipBA toxin–antitoxin system adopts an unusual three-component regulatory mechanism” (IUCrJ, 2022)

T1: HipA^C, C-terminal component of the split HipA toxin from Haemophilus influenzae (HI0665), His-tagged (H. influenzae (KW20 strain, ATCC 51907), UniProt P44033 1-343)
T1 construct: also called His-tagged HipA^C; not shown: His6, N-terminal, kept
T1 sequence: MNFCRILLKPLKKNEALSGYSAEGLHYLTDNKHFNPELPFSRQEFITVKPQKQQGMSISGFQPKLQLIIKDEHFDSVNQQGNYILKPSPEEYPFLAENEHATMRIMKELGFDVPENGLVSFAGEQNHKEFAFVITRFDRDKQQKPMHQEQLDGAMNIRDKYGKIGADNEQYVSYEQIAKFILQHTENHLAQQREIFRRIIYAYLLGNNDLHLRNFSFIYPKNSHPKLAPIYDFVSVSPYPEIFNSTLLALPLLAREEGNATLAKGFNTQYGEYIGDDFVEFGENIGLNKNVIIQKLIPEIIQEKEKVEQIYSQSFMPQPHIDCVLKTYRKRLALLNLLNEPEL

B1: HipA^N, N-terminal component of the split HipA toxin from Haemophilus influenzae (HI0666) (natural protein)
chain: MRDLVRSGKVFLYGEFIGLLREDHRGFHFSYNPDYQGIPLSLSFPIEQSPFHSDTLFPYFASLVPEGWLKHKYALHQRIDESDMFRFLLNNGENMLGAVQIQEEKQ

Tests used:
[1] = molecular target: HipB antitoxin from Haemophilus influenzae (HI0666.1) (H. influenzae (KW20 strain, ATCC 51907)) (UniProt P44034); test: cross-linking; chemical cross-linking of H. influenzae HipB with DMA and DMS cross-linkers, SDS-PAGE
[2] = molecular target: T1, HipA^C, C-terminal component of the …; test: pull-down; conditions: partners not purified

Row | Molecule | stoichiometry N [1] | binding result [2]
1 | HipB antitoxin from Haemophilus influenzae (HI0666.1) (from UniProt P44034 1-106) (natural protein) | 2 | 
2 | B1 |  | binds
